In the DeepSol protein solubility set:

assay: soluble on expression in E. coli; label from the status in PepcDB or PDB records

Soluble on expression in E. coli, soluble:
GSHMENYHAGPGISKSQLDDIADTPALYLWRKNAPVDTTKTKTLDLGTAFHCRVLELEEFSNRFIVAPEFNRRTNAGKEEEKAFLMECASTGKTVITAEEGRKIELMYQSVMALPLGQWLVESAGHAESSIYWEDPETGILCRCRPDKIIPEFHWIMDVKTTADIQRFKTAYYDYRYHVQDAFYSDGYEAQFGVQPTFVFLVASTTIECGRYPVEIFMMGEEAKLAGQQEYHRNLRTLSDCLNTDEWPAIKTLSLPRWAKEYAND
GSHMEQDLKTLPTTKITCPKCGNDTAYWWEMQTRAGDEPSTIFYKCTKCGHTWRSYE
GSHMGHIIDISKWNGDINWSIAKQHIDFIIARVQDGSNYVDPLYKGYVQAMKQHGIPFGNYAFCRFVSIADAKKEAQDFWNRGDKSATVWVADVEVKTMNDMRAGTQAFIDELYRLGAKKVGLYVGHHMYTPFGMANVKSDFVWIPRYGGNKPAYPCDIWQYTETGNVPGIGKCDLNSLIGNKSLSWFTESA
GSHMMKVEKEIKTNQDIDVVMTIFSDPAFTIPQIFPGIASIKCIEPEIFEAEGKFLAFSYKVKGRVYKGVDEVRIIYDSDRGNGILYIRKKDNNTLQIILEHDNKLTAFLGKPYVSSNLDRLAENIDEIIRLERIKRKI
GSHMNNEDFSQWSVDDVITWCISTLEVEETDPLCQRLRENDIVGDLLPELCLQDCQDLCDGDLNKAIKFKILINKMRDSKLEWKD
GSHMSKSDVFHLGLTKNDLQGATLAIVPGDPDRVEKIAALMDKPVKLASHREFTTWRAELDGKPVIVCSTGIGGPSTSIAVEELAQLGIRTFLRIGTTGAIQPHINVGDVLVTTASVRLDGASLHFAPLEFPAVADFECTTALVEAAKSIGATTHVGVTASSDTFYPGQERYDTYSGRVVRHFKGSMEEWQAMGVMNYEMESATLLTMCASQGLRAGMVAGVIVNRTQQEIPNAETMKQTESHAVKIVVEAARRLL
GSHMSQPRPLLSPPETEEQLLAQAQQLSGYTLGELAALVGLVTPENLKRDKGWIGVLLEIWLGASAGSKPEQDFAALGVELKTIPVDSLGRPLETTFVCVAPLTGNSGVTWETSHVRHKLKRVLWIPVEGERSIPLAQRRVGSPLLWSPNEEEDRQLREDWEELMDMIVLGQVERITARHGEYLQIRPKAANAKALTEAIGARGERILTLPRGFYLKKNFTSALLARHFLIQ
GSHMVPEPDLPHDLRHLNTEPMEIFRNSVKIEEIMPNGDPLLAGQNTVDEVYVSRPS
GSITQPTAINVIFPDPALANAIKIAAGKSNVTDTVTQADLDGITTLSAFGTGVTTIEGVQYLNNLIGLELKDNQITDLAPLKNLTKITELELSGNPLKNVSAIAGLQSIKTLDLTSTQITDVTPLAGLSNLQVLYLDLNQITNISPLAGLTNLQYLSIGNAQVSDLTPLANLSKLTTLKADDNKISDISPLASLPNLIEVHLKNNQISDVSPLANTSNLFIVTLTNQTITNQPVFYNNNLVVPNVVKGPSGAPIAPATISDNGTYASPNLTWNLTSFINNVSYTFNQSVTFKNTTVPFSGTVTQPLTE
GSKGNIRVIARVRPVTKEDGEGPEATNAVTFDADDDSIIHLLHKGKPVSFELDKVFSPQASQQDVFQEVQALVTSCIDGFNVCIFAYGQTGAGKTYTMEGTAENPGINQRALQLLFSEVQEKASDWEYTITVSAAEIYNEVLRDLLGKEPQEKLEIRLCPDGSGQLYVPGLTEFQVQSVDDINKVFEFGHTNRTTEFTNLNEHSSRSHALLIVTVRGVDCSTGLRTTGKLNLVDLAGSERVGKSGAEGSRLREAQHINKSLSALGDVIAALRSRQGHVPFRNSKLTYLLQDSLSGDSKTLMVVQVSPVEKNTSETLYSLKFAERVRSVEL
GSLILDGDLLKDKLKLPVIDNLFGKELLDKFQDDIKDKYGVDTKDLKILKTSEDKRFYYVSVDAGDGEKCKFKIRKDVDVPKMVGRKCRKDDDDDDGY
GSLRVKFSRSADAPAYQQGQNQLYNELNLGRREEYDVLDKRRGRD
